# Assay: soluble on expression in E. coli; label from the status in PepcDB or PDB records
row,Sequence,soluble on expression in E. coli
1,MGKRKAFIDKKASQSFRLVPDNRERSERFKPTQEHLEEQQKYGVYYDDDYDYLQHMRAVNEPMKLENVHEEVEKTTIKTSGSSAFPPAPPLFGLVGALKKPEFFDEDVANALEEVTDDRNTGELEDNFITLAGGLLDERTTVYRSTRRGEDSEEEEDDDEDDEMYDDYNDDELFGEEAVGEIRVERADQRVIDNAFEELMDREYNTDQIGELDGDDYDVGGALEPNAGRLHKLINDKGPSNAEYDEELAKHYVRERMRLIEEGVIKDKEEYEIVEVDEGTNKKMKWDCESFATQYTNIYNHPTLIKEPRGLSRKALKRFDKAVEEMDIAEEDEDDDEDMEDDDDKESVFSTVSTFRPKNETPEQRSLRKKAVKEARKLRRVEKKANKTMFAEEKRKLAKGRIGQIKARPI,not soluble
2,PAAGPSRVRQNFHPDSEAAINRQINLELYASYVYLSMAYYFSRDDVALNNFSRYFLHQSREETEHAEKLMRLQNQRGGRIRLQDIKKPEQDDWESGLHAMECALLLEKNVNQSLLELHALASDKGDPHLCDFLETYYLNEQVKSIKELGDHVHNLVKMGAPDAGLAEYLFDTHTLGNENKQN,soluble
3,MRPSGRMENKKQSKGASRGSRRRSINTSNSNTSARHAFSPCSYSSSGTEIRKVAISVSSNSTTELPCAQSPNVGSRTSDSHQLTLGSDLRSEPNNLNIAATLAEPNIAEHFKGVLTKKEAANLTRRDDFTMYYRVVKDQAKVELETTIPLFICYRNSENKVFSFRVEQVLTENNSMWWTVMINKQHTQMFRRLLDLVRCYHSYRFINPETRSQEMFPIWKYTNQASMNP,not soluble
4,MGSDKIHHHHHHMINNYLERQIKENFPYQPTFEQEIAVKSLSEFLLSTLADEVFILRGYAGTGKTSLVGALVKTMDQLQQKAVLLAPTGRAAKVFSSYAGHPAFTIHKKIYRQQSFSNETSNFSINDNLATNTLFIVDEASMISNEGLSGSMFGTGRLLDDLIQFVYSGQGCRLLLMGDTAQLPPVGEELSPALFADALKGYGLEVREVDLTQVVRQIQESGILWNATQLRQLIAEDNCYSLPKIKITGFPDIKMVPGTELIDAITSCYDHDGMDETIVICRSNKRANLYNNGIRAQILWREDELNTGDMLMIAKNNYYWTEQYKEMDFIANGEIAVVRRVRKTREMYGFRFAEVTLRFPDQNDFELDANLLLDTLHSDSPALPKVDNDRLFYTILEDYADISNKRDRMKKMKADPHYNALQVKYAYAITCHKAQGGQWQNVFLDQGYMTDEYLTPDYFRWLYTAFTRATKTLYLVNYPKEQIL,not soluble
5,VRMVGLTIETRPDWAFERQIDRMLAFGTTRVELGVQTIFNFIHERVGRGHGVEEIIKATQLLRDAGLKINYHIMPGLPGSNFERDLYVFKTIFEDPRFRPDMLKIYPTLVTRDAPLYAWYKAGLYKPYTTEEAVELLVEAYKIFPKWVRVMRIQRDIPSHLIVAGVKHSNLGQLVFEELVRRGIRPREI,not soluble
6,LTVLELESQIDVLSRIQFVSRFGSNLVHIEGVKGSGKSWLAQRYLEKWCDDADQVLLMCHPNQSIQQQRGIILKQVVRDPLFNESDSVVDSVGRMLAGEKCNLVLAIDDAHLLSSELLSELWLLVQKAQSAPNWQINILLFAEKGKLTQTLSQMSYGQDNKPVDIDINP,soluble
7,MGSDKIHHHHHHVIKLIRQFVLPHFGIDATEAKISALGNGHINETLLVRWPTGELVLQRINTQVFKTPQALVSNADKISHHLCAKALQQQYGLKVVSPCLTKEGELALDLGEQGFWRAISYLPHSHSIEVVKSEKEAEMAAKAFGHFASALSDFDATQLEDVIPQFHHLPGRMALLKQAVELDSQHRLAFCRHWVDYAVSQQALLDELAEISPKLPLRICHNDTKINNMLFDKRDMSSMAIIDLDTCMKGHLMYDFGDMVRTFCSPEAEDSTALENVKVRQSIFAAICRGYLSELGNVLTEVEKRSLWLGARVICLMIGVRFLTDYLNGDVYFHIHREGHNLDRAANQFTLYQSLLDQDVALKACFELNPLSAVEHS,not soluble
8,VSAADTAEDLPEQFRIRRDKRARLLAQGRDPYPVAVPRTHTLAEVRAAHPDLPIDTATEDIVGVAGRVIFARNSGKLCFATLQDGDGTQLQVMISLDKVGQAALDAWKADVDLGDIVYVHGAVISSRRGELSVLADCWRIAAKSLRPLPVAHKEMSEESRVRQRYVDLIVRPEARAVARLRIAVVRAIRTALQRRGFLEVETPVLQTLAGGAAARPFATHSNALDIDLYLRIAPELFLKRCIVGGFDKVFELNRVFRNEGADSTHSPEFSMLETYQTYGTYDDSAVVTRELIQEVADEAIGTRQLPLPDGSVYDIDGEWATIQMYPSLSVALGEEITPQTTVDRLRGIADSLGLEKDPAIHDNRGFGHGKLIEELWERTVGKSLSAPTFVKDFPVQTTPLTRQHRSIPGVTEKWDLYLRGIELATGYSELSDPVVQRERFADQARAAAAGDDEAMVLDEDFLAALEYGMPPCTGTGMGIDRLLMSLTGLSIRETVLFPIVRPHSN,not soluble
9,MISLVLGLLTSKLHYEQTYYTEIAKRARLYHNVVAQFTPFCIDSKTDLVSGLIYDTDTGKWKEQTFPIPSYIYDRYSFHEETDFEKAKSIIHSLHNRPSTTFLNNTLINLSELHDLFLTNKKLSPYIPKFEVATIQNIFKLLLKSKDIIIRPTNIHSKDNLYRVAYKNKTFHIDTVNEKYHTSLSIKRTDEFISWCKSNIRSSRYIVHTMLQPPNQLTYPLHIRTILQKNKEQTWNVIGQFIQKSSFPNQLLPSATDDDSLHSFSKIKYVLSSTGVQLLQDALHDIINEVFQTLDQSYSSLFELELSTIMDQKGAIWLMYVNTIPPYEQYIRHSDSLAEKIFHGPLKFSRFTP,not soluble
10,MGSDKIHHHHHHMVRPQRNKKRFILILNGVWNLEVTSKDRPIAVPGSWNEQYQDLCYEEGPFTYKTTFYVPKELSQKHIRLYFAAVNTDCEVFLNGEKVGENHIEYLPFEVDVTGKVKSGENELRVVVENRLKVGGFPSKVPDSGTHTVGFFGSFPPANFDFFPYGGIIRPVLIEFTDHARILDIWVDTSESEPEKKLGKVKVKIEVSEEAVGQEMTIKLGEEEKKIRTSNRFVEGEFILENARFWSLEDPYLYPLKVELEKDEYTLDIGIRTISWDEKRLYLNGKPVFLKGFGKHEEFPVLGQGTFYPLMIKDFNLLKWINANSFRTSHYPYSEEWLDLADRLGILVIDEAPHVGITRYHYNPETQKIAEDNIRRMIDRHKNHPSVIMWSVANEPESNHPDAEGFFKALYETANEMDRTRPVVMVSMMDAPDERTRDVALKYFDIVCVNRYYGWYIYQGRIEEGLQALEKDIEELYARHRKPIFVTEFGADAIAGIHYDPPQMFSEEYQAELVEKTIRLLLKKDYIIGTHVWAFADFKTPQNVRRPILNHKGVFTRDRQPKLVAHVLRRLWSEV,not soluble
11,MKTNFKQKIIEQARSEGLQVTALREQVLDIVLQQSGVIKAYNVLSQMQQQSEGVLAPPTAYRALDFWAEQGVLHKVAAVNGYILCSHAQHECDDHCHDHEEAEAHHSAFILVCTECGTADEQTLSHEWAALRAGVAESGFALKEEHVVLTGICKKCQQ,not soluble
12,MTAAMYDLMDYDEVLEKFDPVMGLEVHVELATETKMFSAPSAHFGAEPNSNVDPVSLGLPGALPVVNAKGVEWAIKIGLALNCKIAESSRFARKNYFYPDQPKNYQISQYDEPIAYDGYLDVVLDDGTPWRVEIERAHMEEDTGKLTHLGGADGRIHGATASLVDCNRAGIPLIEIVTKPIEGAGERAPEVARAYVGALRDLVKALGVSDARMDQGSMRCDANVSLRPVGTVEFGTRTETKNINSLKSVEQAVRYEMQRQAQVLEDGGEIVQETRHYQETDGSTSKGRPKETAEDYRYFNDPDLPPVIAPKEWVEEIRATLPELPWIRRARIQKEWGLKDEEMRDLVNAGALDLIVETVEAGASASEARSWWVAYLSQKANESGVELDSLSITPQQVARVAALVKEGKLTNKLARQAVDGVLAGEGDVDEVVAARGLEVVRDDGAIEKAVDEALAANPDIVEKYKAGNTKVTGAIVGAVMKATRGKADPAQVNKLIAEKLA,not soluble
13,MGSDKIHHHHHHMTQPPQSLQIKLANPRGFCAGVDRAISIVERALELFSPPIYVRHEVVHNRYVVQNLKDRGAVFVDELDQVPDDSIVIFSAHGVSQAVRAEAKKRGLRVFDATCPLVTKVHLQVTRASRKGIECILIGHAGHPEVEGTMGQYDNPEGGVLLVESPADVEALVVKDPDNLCFVTQTTLSMDDTADVIAALQKRFPSIQGPRKDDICYATQNRQDAVRNVADDVDLFIVVGSKNSSNSNRLMELAIKKGTQSYLVDNADDIKPEWFNDIEKVAVTAGASAPEVLVQQVIDAIAKLAPSVITEVEGRKEDTVFAVPAELR,not soluble
14,MVDNLIKYIHKSDVAIVVLHEIYGINSFIEDVCQKYYKYGYDVFCPELLGEKRVFPYSKVQEAYDFFINNVGFDIYKKVEKLINDLKSEYKYVFVAGYSVGATIAWRCSEDSFCDGIICCYGSRIRDYMDVIPKCPTLLVFAKHDSFDVDSISCQLSRKQNIQIEILDANHGFIDRYSNNYSDIQTKVFTIKEKSFLSKCLA,not soluble
15,MTVPDRSEIAGKWYVVALASNTEFFLREKDKMKMAMARISFLGEDELKVSYAVPKPNGCRKWETTFKKTSDDGEVYYSEEAKKKVEVLDTDYKSYAVIYATRVKDGRTLHMMRLYSRSPEVSPAATAIFRKLAGERNYTDEMVAMLPRQEECTVDEV,soluble
16,MEFGEKLIHLRKKNRLTQKQLAAKIGTTASTISKYENDNHRPPIFILAKLAEILGTTTDFLLDDVAGLREKNSVNAFPLIGNPELEKWYLELPYTYSEEELLMLKRIADAIENKK,not soluble
17,MGSDKIHHHHHHMEQLPILNLSDWHAGGQSRHAFITKLADAARRIGFFYLTGHGIELARQQQVLLLARDFFALPLADKLAVKMTNTPHFRGYTRLQGELTLGKPDLREQFDIMQEETANPPRSDVPKWSQLQGPNQWPSQLPQMKTILLEWQQDLADTSVALLKALAVALEQSETAFDATIDAGPYQHMKLIRYPNANGETSGQGVGAHKDPGYLTLVLQDKQSGLEVQTDEGWLSIPPLEGAFVVNIGELLELASNGYLKATYHRVTSPPAGVERYSCAFFMAAQLNATVPLLPLPEYLARQALGPASDPLNPLFHQVGQNVLKGRLRSHPDVAKAHYASFANAI,not soluble
18,NTLTSQIEQLQSLAHELLYLGVDGAPIYTDHFRQLNKEVLEQSDALYPQRGATPEEEANICLALLMGYNATIYNQGDKEEKKQVVLNRCWDVLDQLPATLLKCQLLTYCYGEVFE,not soluble
19,SAILALFFHMYSHNISSLSMKAQPERMHVLVLSSWRSGSSFVGQLFGQHPDVFYLMEPAWHVWMTFKQSTAWMLHMAVRDLIRAVFLCDMSVFDAYMEPGPRRQSSLFQWENSRALCSAPACDIIPQDEIIPRAHCRLLCSQQPFEVVEKACRSYSHVVLKEVRFFNLQSLYPLLKDPSLNLHIVHLVRDPRAVFRSRERTKGDLMIDSRIVMGQHEQKLKKEDQPYYVMQVICQSQLEIYKTIQSLPKALQERYLLVRYEDLARAPVAQTSRMYEFVGLEFLPHLQTWVHNITRGKGMGDHAFHTNARDALNVSQAWRWSLPYEKVSRLQKACGDAMNLLGYRHVRSEQEQRNLLLDLLSTWTVPEQIH,not soluble
20,GMKLQTTIQHEPKDGSGFDRGLREFFEYRDTGVNEATGGMFGAHVIRAIPGKEAKPTWHTHTVGFQLFYVLRGWVEFEYEDIGAVMLEAGGSAFQPPGVRHRELRHSDDLEVLEIVSPAGFATSVVDLEEARKP,soluble
21,MIFRFGFVSNAMSLWDASPAKTLTFARYSKLSKTERKEALLTVTKANLRNTMRTLHYIIGHGIPLYRFSSSIVPLATHPDVMWDFVTPFQKEFREIGELVKTHQLRTSFHPNQFTLFTSPKESVTKNAVTDMAYHYRMLEAMGIADRSVINIHIGGAYGNKDTATAQFHQNIKQLPQEIKERMTLENDDKTYTTEETLQVCEQEDVPFVFDFHHFYANPDDHADLNVALPRMIKTWERIGLQPKVHLSSPKSEQAIRSHADYVDANFLLPLLERFRQWGTNIDFMIEAKQKDKALLRLMDELSSIRGVKRIGGGALQWKS,not soluble

# From the DeepSol protein solubility set
